T1: recombinant human TL1A (human, UniProt O95150 71-251)
T1 construct: The ELISA method says only 'recombinant TL1A' coated on plates; homotrimeric cytokine; also called TNFSF15; recombinant TL1A
T1 chain: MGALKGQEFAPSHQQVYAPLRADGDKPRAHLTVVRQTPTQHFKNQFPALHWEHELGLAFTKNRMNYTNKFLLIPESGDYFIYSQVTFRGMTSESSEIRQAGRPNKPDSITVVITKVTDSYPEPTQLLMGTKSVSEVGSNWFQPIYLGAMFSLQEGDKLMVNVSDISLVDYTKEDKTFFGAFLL

B1: TL1A-0271 (antibody, human IgG1, kappa, V domains shown)
VH: QVQLVQSGAEVKKPGASVKVSCKASGYDFSYYGISWVRQAPGQGLEWMGWISTYNDNTHYAPSLQGRVTMTTDTSTSTAYMELRSLRSDDTAVYYCARESYYGSGAHRGGMDVWGQGTTVTVSS
VL: DIQMTQSPSSLSASVGDRVTITCRASQSVSSYLAWYQQKPGKAPKLLIYDASNRATGVPSRFSGSGSGTDFTLTISSLQPEDFATYYCQQRSNWPWTFGQGTKVEIKR
notes: human IgG1 effector-function-minimized / human kappa
B2: TL1A-0274 (antibody, human IgG1, kappa, V domains shown)
VH: B1 VH with D56T, N57G, H107F
VL: B1 VL
notes: as for B1
B3: TL1A-0279 (antibody, human IgG1, kappa, V domains shown)
VH: B1 VH with D56T, N57V
VL: B1 VL
notes: as for B1
B4: TL1A-0277 (antibody, human IgG1, kappa, V domains shown)
VH: B1 VH with D56T, N57G, P62Q, S63K
VL: B1 VL
notes: as for B1
B5: TL1A-0276 (antibody, human IgG1, kappa, V domains shown)
VH: B1 VH with D56T, N57G, P62Q, S63K, H107F
VL: B1 VL
notes: as for B1
B6: TL1A-0282 (antibody, V domains shown)
VH: B1 VH with N55G, D56G, H107F
VL: B1 VL
notes: IgG1 effector-minimized/kappa
B7: TL1A-0296 (antibody, V domains shown)
VH: B1 VH with S30T, I34V, N55G, D56G, H107F
VL: B1 VL
notes: IgG1 effector-minimized/kappa
B8: TL1A-0283 (antibody, V domains shown)
VH: B1 VH with N55G, D56G
VL: B1 VL
notes: IgG1 effector-minimized/kappa
B9: TL1A-0293 (antibody, human IgG1, kappa, V domains shown)
VH: B1 VH with S30T, I34V, D56T, N57V
VL: B1 VL
notes: as for B1
B10: TL1A-0290 (antibody, V domains shown)
VH: B1 VH with S30T, I34V, D56T, N57G, P62Q, S63K, H107F
VL: B1 VL
notes: IgG1 effector-minimized/kappa
B11: TL1A-0287 (antibody, human IgG1, kappa, V domains shown)
VH: B1 VH with S30T, I34V, P62Q, S63K
VL: B1 VL
notes: as for B1
B12: TL1A-0281 (antibody, human IgG1, kappa, V domains shown)
VH: B1 VH with D56T
VL: B1 VL
notes: as for B1
B13: TL1A-0273 (antibody, human IgG1, kappa, V domains shown)
VH: B1 VH with P62Q, S63K
VL: B1 VL
notes: as for B1
B14: TL1A-0292 (antibody, human IgG1, kappa, V domains shown)
VH: B1 VH with S30T, I34V, D56T, N57V, H107F
VL: B1 VL
notes: as for B1
B15: TL1A-0285 (antibody, human IgG1, kappa, V domains shown)
VH: B1 VH with S30T, I34V
VL: B1 VL
notes: as for B1
B16: TL1A-0284 (antibody, human IgG1, kappa, V domains shown)
VH: B1 VH with S30T, I34V, H107F
VL: B1 VL
notes: as for B1
B17: TL1A-0289 (antibody, human IgG1, kappa, V domains shown)
VH: B1 VH with S30T, I34V, D56T, N57G
VL: B1 VL
notes: as for B1
B18: TL1A-0275 (antibody, human IgG1, kappa, V domains shown)
VH: B1 VH with D56T, N57G
VL: B1 VL
notes: as for B1
B19: TL1A-0295 (antibody, human IgG1, kappa, V domains shown)
VH: B1 VH with S30T, I34V, D56T
VL: B1 VL
notes: as for B1
B20: TL1A-0288 (antibody, human IgG1, kappa, V domains shown)
VH: B1 VH with S30T, I34V, D56T, N57G, H107F
VL: B1 VL
notes: as for B1
B21: TL1A-0278 (antibody, human IgG1, kappa, V domains shown)
VH: B1 VH with D56T, N57V, H107F
VL: B1 VL
notes: as for B1
B22: TL1A-0294 (antibody, human IgG1, kappa, V domains shown)
VH: B1 VH with S30T, I34V, D56T, H107F
VL: B1 VL
notes: as for B1
B23: TL1A-0286 (antibody, human IgG1, kappa, V domains shown)
VH: B1 VH with S30T, I34V, P62Q, S63K, H107F
VL: B1 VL
notes: as for B1
B24: TL1A-0297 (antibody, V domains shown)
VH: B1 VH with S30T, I34V, N55G, D56G
VL: B1 VL
notes: IgG1 effector-minimized/kappa
B25: TL1A-0272 (antibody, human IgG1, kappa, V domains shown)
VH: B1 VH with P62Q, S63K, H107F
VL: B1 VL
notes: as for B1
B26: TL1A-0280 (antibody, human IgG1, kappa, V domains shown)
VH: B1 VH with D56T, H107F
VL: B1 VL
notes: as for B1

Changes are numbered by the printed parent chain.

Usually IC50 stands for the concentration at which inhibition is half-maximal.

In the test the target is T1, recombinant human TL1A. Put plainly: competition ELISA on coated recombinant TL1A; competitor biotinylated TL1A-0002. The method, then:
For this competition ELISA assay procedure, 96-well high binding plates (Corning, product number 3590) were coated with 1 μg/mL recombinant TL1A in 100 μL/well in Phospate Buffered Saline (PBS) overnight at 4° C. Plates were then blocked in PBS+0.02% casein solution and washed with PBS+0.05% Tween-20 following standard ELISA protocol. […] Plates were washed with PBS+0.05% Tween-20 following standard ELISA protocol, and Streptavidin-HRP (Southern Biotech, product number 7100-05) diluted to 1:10,000 in assay buffer was added to plates and incubated for 25-30 minutes at room temperature. Next, the plates were washed with PBS+0.05% Tween-20 following standard ELISA protocol, and then TMB substrate (BioFX Laboratories, catalog number TMBW-0100-01) was added to plates. Reactions were stopped after approximately 5 minutes by adding 0.18 M ortho-phosphoric acid to each well and absorbance was read at 450 nm.
For orientation: ELISA stands for enzyme-linked immunosorbent assay.
As to B1, the “Bioactivity relative to TL1A-0002” value is 2.1 fold and the IC50 turned out to be 10.6 nM.
For B2, in that order: 2 fold and 10.1 nM.
For B3, in that order: 2.1 fold and 10.5 nM.
Take B4: the “Bioactivity relative to TL1A-0002” value is 2 fold and the IC50 was 10.2 nM.
Regarding B5, the “Bioactivity relative to TL1A-0002” value was found to be 2.1 fold and the IC50 was found to be 10.6 nM.
Turning to B6, the “Bioactivity relative to TL1A-0002” value stood at 10.3 fold and the IC50 is 52.1 nM.
As for B7, the “Bioactivity relative to TL1A-0002” value was found to be 17.3 fold and the 50% inhibitory concentration (IC50) is 87.3 nM.
On to B8, for which the “Bioactivity relative to TL1A-0002” value came out at 48.9 fold and the IC50 amounted to 246 nM.
B9: the “Bioactivity relative to TL1A-0002” value stood at 1.9 fold and the IC50 came out at 9.7 nM.
For B10, in that order: 4.2 fold and 21 nM.
Consider B11, for which the “Bioactivity relative to TL1A-0002” value was found to be 2 fold and the IC50 turned out to be 10.1 nM.
B12: the “Bioactivity relative to TL1A-0002” value is 2.6 fold and the IC50 stood at 13.1 nM.
Turning to B13, the “Bioactivity relative to TL1A-0002” value came out at 2.2 fold and the IC50 amounted to 10.9 nM.
B14: the “Bioactivity relative to TL1A-0002” value is 1.9 fold and the IC50 was found to be 9.6 nM.
For B15, the “Bioactivity relative to TL1A-0002” value was 1.7 fold and the IC50 amounted to 8.6 nM.
For B16, in that order: 2 fold and 10.3 nM.
For B17, in that order: 1.6 fold and 7.9 nM.
Consider B18, for which the “Bioactivity relative to TL1A-0002” value came to 1.8 fold and the IC50 was determined as 9 nM.
For B19, in that order: 2.4 fold and 12.3 nM.
For B20, in that order: 1.6 fold and 8 nM.
For B21, in that order: 1.8 fold and 9.1 nM.
On to B22, for which the “Bioactivity relative to TL1A-0002” value was found to be 1.6 fold and the IC50 was 8 nM.
For B23, in that order: 2.3 fold and 11.6 nM.
For B24, in that order: 14.5 fold and 73.1 nM.
For B25, in that order: 2.3 fold and 11.6 nM.
For B26, the “Bioactivity relative to TL1A-0002” value worked out at 1.6 fold and the IC50 was 8.2 nM.

The values are drawn from patent US20240059799A1 (Pfizer, published 2024).
